Data from patent CN101663321A.
Read-outs that look alike come from different tables or passages of the source.

B1: E63 antibody (produced by hybridoma 124E63, ATCC PTA-7818) (antibody, V domains shown)
VH: QVQLQESGPGLVKPSETLSLTCIVSGGSVSSGGYYWSWIRQPPGKGLEWIGYIYYSGSTNYNPSLKSRVTISVDTSKNQFSLKLSSVTAADTAVYYCARWITMFRGVGFDPWGQGTLVTVSS
VL: EIVLTQSPDFQSVTPKEKVTITCRASQSIGSSLHWYQQKPDQSPKLLIKYASQSFSGVPSRFSGSGSGTDFTLTINSLEAEDAAAYYCHQSSSLPLTFGGGTKVEIK
B2: F19 antibody (produced by hybridoma 124F19, ATCC PTA-7819) (antibody, human IgG1, V domains shown)
VH: QVQLQQWGAGLLKPSETLSLTCAVYGGSFSGYNWHWIRQPPGKGLEWIGEITHSGSTNYNPSLKSRVTISVDTSKNQFSLKLSSVTAADTAVYYCVREIAVAGTGYYGMDVWGQGTTVTVSS
VL: AIQLTQSPSSLSASVGDRVTITCRASRGINSAFAWYQQKPGKAPKLLIYDASSLESGVPSRFSGSGSGTDFTLTISSLQPEDFATYYCQQFNSYPLTFGGGTKVEIK

Experiments:
Assay in all cases: dot blot: serial dilutions of hLIGHT spotted on PVDF, probed with 5 μg/ml antibody
[1] = target: denatured soluble hLIGHT (boiled in 2x SDS sample buffer) (human) (UniProt O43557)
[2] = target: soluble FLAG-tagged recombinant hLIGHT (Gly66-Val240 with N-terminal FLAG), native form (human) (UniProt O43557)
[3] = target: denatured soluble hLIGHT (boiled in 2x SDS sample buffer) (human) (UniProt O43557); remark: listed apart in the source

Row | Binder | lowest detection limit (dot blot) [1] [ng] | lowest detection limit (dot blot) [2] [ng] | lowest detection limit (dot blot) [3] [ng]
1 | B1 | 139 | 3.9 | 
2 | B2 |  | 23 | > 5000
